Where no end group is shown, it is not given here.
target: GLP-1 receptor; assay: cell-based or functional assay

First: HVEGTYTSDVSSYLEGQAAKEFIAWLVKGR-NH2 [Val^8-Tyr^12-GLP-1(7-36)NH2]
Second: HVEGTFTSDVSSYLEEQALKEFIAWLVKGRG-OH [Val^8-Glu^22-Leu^25-GLP-1(7-37)OH]
The “GLP-1 receptor activation relative to Val^8-GLP-1(7-37)OH” value of the first is lower: 1.1 fold of Val^8-GLP-1(7-37)OH for the first, 2.8 fold of Val^8-GLP-1(7-37)OH for the second.

First: HVEGTFTSDYSSFLEGQAAKEFIAWLVKGRG-OH [Val^8-Tyr^16-Phe^19-GLP-1(7-37)OH]
Second: HVEGTWTSDVSSYLEGQAAKEFIAWLVKGRG-OH [Val^8-Trp^12-GLP-1(7-37)OH]
The “GLP-1 receptor activation relative to Val^8-GLP-1(7-37)OH” value of the first is higher: 2.8 fold of Val^8-GLP-1(7-37)OH for the first, 1.1 fold of Val^8-GLP-1(7-37)OH for the second.

First: HVEGTYTSDVSSYLEEQAAKEFIAWLVKGRG-OH [Val^8-Tyr^12-Glu^22-GLP-1(7-37)OH]
Second: HVEGTFTSDVSSYLEGQAAKEFIAWLVKGRH-OH [Val^8-His^37-GLP-1(7-37)OH]
The “GLP-1 receptor activation relative to Val^8-GLP-1(7-37)OH” value of the first is higher: 2.7 fold of Val^8-GLP-1(7-37)OH for the first, 1.2 fold of Val^8-GLP-1(7-37)OH for the second.

First: HVEGTFTSDVSSYLEEQAAKIFIAWLVKGRG-OH [Val^8-Glu^22-Ile^27-GLP-1(7-37)OH]
Second: HVEGTFTSDWSSYLEEQAVKEFIAWLVKGRG-OH [Val^8-Trp^16-Glu^22-Val^25-GLP-1(7-37)OH]
The “GLP-1 receptor activation relative to Val^8-GLP-1(7-37)OH” value of the first is lower: 2 fold of Val^8-GLP-1(7-37)OH for the first, 4.4 fold of Val^8-GLP-1(7-37)OH for the second.

First: HVEGTYTSDYSSYLEGQAAKEFIAWLVKGRG-OH [Val^8-Tyr^12-Tyr^16-GLP-1(7-37)OH]
Second: HVEGTFTSDVSSYLEEQAAKEFIAWLVKGRH-OH [Val^8-Glu^22-His^37-GLP-1(7-37)OH]
The “GLP-1 receptor activation relative to Val^8-GLP-1(7-37)OH” value of the first is lower: 1.5 fold of Val^8-GLP-1(7-37)OH for the first, 4.7 fold of Val^8-GLP-1(7-37)OH for the second.

Compared with HVEGTWTSDVSSYLEEQAAKEFIAWLVKGRG-OH [Val^8-Trp^12-Glu^22-GLP-1(7-37)OH], HVEGTFTSDFSSYLEEQAAKEFIAWLVKGRG-OH [Val^8-Phe^16-Glu^22-GLP-1(7-37)OH] is higher in “GLP-1 receptor activation relative to Val^8-GLP-1(7-37)OH” value: 1.7 fold of Val^8-GLP-1(7-37)OH for the first, 2.3 fold of Val^8-GLP-1(7-37)OH for the second.

First: HVEGTFTSDVSFYLEEQAAKEFIAWLVKGRG-OH [Val^8-Phe^18-Glu^22-GLP-1(7-37)OH]
Second: HVEGTFTSDWSSYLEEQAAKEFIAWLIKGRG-OH [Val^8-Trp^16-Glu^22-Ile^33-GLP-1(7-37)OH]
The “GLP-1 receptor activation relative to Val^8-GLP-1(7-37)OH” value of the first is lower: 2 fold of Val^8-GLP-1(7-37)OH for the first, 4.1 fold of Val^8-GLP-1(7-37)OH for the second.

Compared with HVEGTFTSDVSSWLEEQAAKEFIAWLVKGRG-OH [Val^8-Trp^19-Glu^22-GLP-1(7-37)OH], HVDGIFTSDYSSYLEEQAAKEFIAWLVKGRG-OH [Val^8-Asp^9-Ile^11-Tyr^16-Glu^22-GLP-1(7-37)OH] is higher in “GLP-1 receptor activation relative to Val^8-GLP-1(7-37)OH” value: 3.2 fold of Val^8-GLP-1(7-37)OH for the first, 4.3 fold of Val^8-GLP-1(7-37)OH for the second.

Compared with HVEGTFTSDYSSWLEEQAAKEFIAWLVKGRG-OH [Val^8-Tyr^16-Trp^19-Glu^22-GLP-1(7-37)OH], HGEGTFTSDVSSYLEGQAAKEFIAWLVKGRG-OH [Gly^8-GLP-1(7-37)OH] is lower in “GLP-1 receptor activation relative to Val^8-GLP-1(7-37)OH” value: 3.5 fold of Val^8-GLP-1(7-37)OH for the first, 1.7 fold of Val^8-GLP-1(7-37)OH for the second.

Compared with HVEGTFTSDVSSYLEEQAIKEFIAWLVKGRG-OH [Val^8-GLU^22-Ile^25-GLP-1(7-37)OH], HVEGTFTSDVSSFLEEQAAKEFIAWLVKGRG-OH [Val^8-Phe^19-Glu^22-GLP-1(7-37)OH] is lower in “GLP-1 receptor activation relative to Val^8-GLP-1(7-37)OH” value: 3.1 fold of Val^8-GLP-1(7-37)OH for the first, 1.5 fold of Val^8-GLP-1(7-37)OH for the second.

First: HVEGTFTSDYSSYLEGQAAKEFIAWLVKGRG-OH [Val^8-Tyr^16-GLP-1(7-37)OH]
Second: HVEGTFTSDISSYLEEQAAKEFIAWLVKGRG-OH [Val^8-Ile^16-Glu^22-GLP-1(7-37)OH]
The “GLP-1 receptor activation relative to Val^8-GLP-1(7-37)OH” value of the first is lower: 2.5 fold of Val^8-GLP-1(7-37)OH for the first, 3.3 fold of Val^8-GLP-1(7-37)OH for the second.

Compared with HVEGTFTSDVSSYFEEQAAKEFIAWLVKGRG-OH [Val^8-Phe^20-Glu^22-GLP-1(7-37)OH], HVEGTFTSDLSSYLEEQAAKEFIAWLVKGRG-OH [Val^8-Leu^16-Glu^22-GLP-1(7-37)OH] is higher in “GLP-1 receptor activation relative to Val^8-GLP-1(7-37)OH” value: 2.7 fold of Val^8-GLP-1(7-37)OH for the first, 4.3 fold of Val^8-GLP-1(7-37)OH for the second.

Compared with HVEGTFTSDVSSYLEGQAAKEFIEWLVKGRG-OH [Val^8-Glu^30-GLP-1(7-37)OH], HVEGTFTSDWSSYLEEQAVKEFIAWLIKGRG-OH [Val^8-Trp^16-Glu^22-Val^25-Ile^33-GLP-1(7-37)OH] is higher in “GLP-1 receptor activation relative to Val^8-GLP-1(7-37)OH” value: 0.7 fold of Val^8-GLP-1(7-37)OH for the first, 5 fold of Val^8-GLP-1(7-37)OH for the second.

First: HVEGTFTSDVSIYLEEQAAKEFIAWLVKGRG-OH [Val^8-Ile^18-Glu^22-GLP-1(7-37)OH]
Second: HVEGTFTSDVSKYLEEQAAKEFIAWLVKGRG-OH [Val^8-Lys^18-Glu^22-GLP-1(7-37)OH]
The “GLP-1 receptor activation relative to Val^8-GLP-1(7-37)OH” value of the first is higher: 4 fold of Val^8-GLP-1(7-37)OH for the first, 2.5 fold of Val^8-GLP-1(7-37)OH for the second.

Going from HVEGTFTSDVSSYLEGQALKEFIAWLVKGRG-OH [Val^8-Leu^25-GLP-1(7-37)OH] to HVEGTFTSDLSSYLEGQAAKEFIAWLVKGRG-OH [Val^8-Leu^16-GLP-1(7-37)OH], the “GLP-1 receptor activation relative to Val^8-GLP-1(7-37)OH” value rises from 0.5 fold of Val^8-GLP-1(7-37)OH to 1.1 fold of Val^8-GLP-1(7-37)OH.

In the case of HVEGTYTSDVSSYLEGQAAKEFIAWLVKGRG-OH [Val^8-Tyr^12-GLP-1(7-37)OH], the “GLP-1 receptor activation relative to Val^8-GLP-1(7-37)OH” value is reported as 1.7 fold of Val^8-GLP-1(7-37)OH.

Source: patent US20040198654A1 (Eli Lilly, published 2004)
